Experimental data: paper PMC3623958, “Structural and Functional Role of INI1 and LEDGF in the HIV-1 Preintegration Complex”

How the values were obtained:
[1] = target: HIV-1 integrase (full length wild type) (HIV-1)
[2] = target: HIV-1 integrase (full length wild type) (HIV-1); assay: cross-linking + other: High-Mass MALDI ToF mass spectrometry; purified IN/LEDGF/INI1-IBD complex (formed by dialysis, affinity chromatography and gel filtration) chemically cross-linked before mass spectrometry; linear mode
[3] = target: T1, HIV-1 integrase (IN);LEDGF/p75;INI1-IBD (HIV-1;human?;human?, UniProt P04585;O75475;Q12824 1148-1435;1-530;174-289, ||); assay: fluorescence anisotropy; 5 mM Mg2+; 2 DNA duplexes per complex assumed; conditions: protein: recombinant;recombinant;recombinant; tags: GST tag on the IN/LEDGF complex cleaved by P3C protease; chain copies: 4;2;2; label: 5'-6FAM on strand 1; blunt
[4] = target: T2, HIV-1 integrase (IN);LEDGF/p75 (HIV-1;human?, UniProt P04585;O75475 1148-1435;1-530, |); assay: as above; conditions: protein: recombinant;recombinant; tags: GST tag on the IN/LEDGF complex cleaved by P3C protease; chain copies: 4;2; label: 5'-6FAM on strand 1; blunt
[5] = target: T1, HIV-1 integrase (IN);LEDGF/p75;INI1-IBD; assay: competition (fluorescence anisotropy); excess over N1; 5 mM Mg2+; conditions: protein: recombinant;recombinant;recombinant; tags: GST tag on the IN/LEDGF complex cleaved by P3C protease; chain copies: 4;2;2; blunt
[6] = target: T2, HIV-1 integrase (IN);LEDGF/p75; assay: as above; conditions: protein: recombinant;recombinant; tags: GST tag on the IN/LEDGF complex cleaved by P3C protease; chain copies: 4;2; blunt

Molecule: Lens Epithelium-Derived Growth Factor LEDGF/p75 (full length wild type) (from UniProt O75475 1-530) (natural protein)
- circular full site integration products counted by cloning in bacteria, IN/LEDGF complex against isolated IN, 0.1 to 12.5 µM in IN monomers [1]: 2 to 10 times

Molecule: HIV-1 integrase (full length wild type) (enzyme)
- stoichiometry N [2]: 2

B1: U5 vDNA 40 bp, 6FAM (dsDNA)
DNA 1: GACTACGGTTCAAGTCAGCGTGTGGAAAATCTCTAGCAGT
DNA 2: ACTGCTAGAGATTTTCCACACGCTGACTTGAACCGTAGTC
- Kd [3]: 35 ± 4 nM
- Kd [4]: 10.6 ± 0.5 nM

B2: non-specific DNA 49 bp, unlabeled competitor (dsDNA)
DNA 1: AGTTAAGTGCTGAATTATGATAGTAATCAATATCTACTCCTAACCTCTT
DNA 2: AAGAGGTTAGGAGTAGATATTGATTACTATCATAATTCAGCACTTAACT
- binding result [5]: no binding
- binding result [6]: no binding
